Experimental data from US20060140889A1 (L MABS B V, published 2006).
Positions count from the first letter of the chain named.

Assays:
[1] = molecular target: T1, chicken lysozyme (chicken, UniProt P00698 19-147); test: ELISA on lysozyme, 100-fold dilution of the protein extract
T1 construct: also called Egg White Lysozyme

[2] = molecular target: T1, chicken lysozyme; test: ELISA, well coated with lysozyme (100 ug/ml) and blocked with ELK, ~50 ng iMab per well, anti-VSV-HRP; urea purification
[3] = molecular target: T1, chicken lysozyme; test: ELISA
[4] = molecular target: T2, bovine lactoferrin (bovine, UniProt P24627 20-708); test: not described at this place
T2 construct: also called LF
T2 sequence (P24627 20-708 limits assumed): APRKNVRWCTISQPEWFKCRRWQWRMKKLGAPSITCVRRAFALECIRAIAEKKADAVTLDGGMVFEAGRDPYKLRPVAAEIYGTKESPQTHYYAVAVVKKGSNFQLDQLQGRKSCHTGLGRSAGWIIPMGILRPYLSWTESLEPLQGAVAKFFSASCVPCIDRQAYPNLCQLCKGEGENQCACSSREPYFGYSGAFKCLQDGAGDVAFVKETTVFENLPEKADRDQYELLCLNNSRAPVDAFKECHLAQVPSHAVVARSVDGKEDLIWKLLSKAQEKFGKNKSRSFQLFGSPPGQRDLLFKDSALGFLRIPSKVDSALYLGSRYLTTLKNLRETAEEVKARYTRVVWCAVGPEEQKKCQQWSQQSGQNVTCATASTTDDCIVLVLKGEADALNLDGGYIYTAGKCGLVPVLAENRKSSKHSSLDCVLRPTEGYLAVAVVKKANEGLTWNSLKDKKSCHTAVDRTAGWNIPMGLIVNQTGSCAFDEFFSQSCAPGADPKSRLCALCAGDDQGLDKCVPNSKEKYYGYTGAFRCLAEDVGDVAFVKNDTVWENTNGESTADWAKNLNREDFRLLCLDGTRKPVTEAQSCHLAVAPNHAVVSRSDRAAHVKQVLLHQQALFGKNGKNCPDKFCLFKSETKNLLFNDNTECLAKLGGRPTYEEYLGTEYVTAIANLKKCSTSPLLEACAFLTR

T1 sequence (P00698 19-147 limits assumed): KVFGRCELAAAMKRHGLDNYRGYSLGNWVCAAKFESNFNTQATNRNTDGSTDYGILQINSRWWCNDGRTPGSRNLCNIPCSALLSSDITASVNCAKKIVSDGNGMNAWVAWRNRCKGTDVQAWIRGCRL

B1: iMab111 (designed binder)
chain: NVKLVCKGGNFVENDDDLKLTCRAEGYTIGPYCMGWFRQAPNDDSTNVATINMGGGITYYGDSVKERFDIRRDNASNTVTLSMDDLQPEDSAEYNCAGDSTIYASYYECGHGLSTGGYGYDSHYRCQGTDVTVSS
notes: iMab100 derivative with two extra cysteines in the core; E. coli, CM126
[1]
  signal over background signal (fold): ~20 fold
[2]
  Absorbtion (450 nm): 0.42 absorbance at 450 nm

B2: iMab116 (designed binder)
chain: B1 chain with C6E, C96G, A104G, C126G
notes: iMab100 derivative lacking one core cysteine; E. coli, CM126; also called iMab16; not shown: C-terminal linker, VSV tag and 6x His tag of vector CM126
[2]
  Absorbtion (450 nm): 0.238 absorbance at 450 nm

B3: iMab115 (designed binder)
chain: B1 chain with C6E, N74Q, C126G
notes: iMab100 with the asparagine of the putative N-glycosylation site in AR3 changed to glutamine; expressed in E. coli as a 21 kD protein; also called iMab15
[3]
  binding result: binds

B4: iMab122 (designed binder)
chain: NVKLVEKGGNFVENDDDLKLTCRASGRTFSSRTMGWFRQAPNDDSTNVATIRWNGGSTYYTNYGDSVKERFDIRVDQASNTVTLSMDDLQPEDSAEYNCAGTDIGDGWSGRYDYRGQGTDVTVSS
notes: 9 beta-strand iMab; E. coli, CM126; not shown: C-terminal linker, VSV tag and 6x His tag of vector CM126
[2]
  Absorbtion (450 nm): 0.271 absorbance at 450 nm

B5: iMab142-xx-0002 (designed binder, not shown: small tags and cut ends)
chain: MNVKLVEKGGNFVENDDDLKLTCRAEGYTIGPYSMGWFRQAPNDDSTNVSCINMGGGITYYGDSVKERFDIRRDNASNTVTLSMDDLQPEDSAVYNCAADWWDGFTYGSTWYNPSSYDYRGQGTDVTVSS
notes: also called iMab142-xx-002
[4]
  binding result: binds

B6: iMab148-xx-0002 (designed binder)
chain: B5 chain with K4H, K8R, K20N, S50A, C51T, K66D
notes: Derivative of iMab142-xx-0002 in which all lysine residues were replaced; xx = C-terminal tag not specified
[4]
  binding result: binds
